Measurements: patent publication US6812017B2, “Mammalian secreted group IIF phospholipase A2” (Centre National de la Recherche Scientique - CNRS, priority 2000, dated 2004)

Experiments:
[1] = from references [8], [16]; cited from earlier work
[2] = Ca2+-dependence of the hydrolysis of phosphatidylcholine vesicles; assay type: biochemical
Protocol: (§1) FIGS. 4A-4C represent the enzymatic properties of recombinant hGIIF sPLA2. […] Full experimental details are provided in materials and methods.
(§2) The Ca^2+ and pH dependencies of hGIIF sPLA2 were measured with POPC vesicles containing 1-palmitoyl-2-[1-^3H]palmitoyl-sn-glycero-3-phospho9choline vesicles and POPG vesicles containing 1-palmitoyl-2-[1-^3H]palmitoyl-sn-glycero-3-phosphoglyceril, respectively. Substrate specificity studies were carried out using a slightly modified assay with the fatty acid binding protein [7]. Reaction mixtures contained 30 μM POPC, POPG, or POPS (1-Palmitoyl-2-Oleoyl-sn-Glcero-3-phosphoserine) large […] vesicles (0.1 μm, prepared by extrusion as described [222[) in Hanks' balanced salt solution with 1 mM Ca^2+, 1 mM Mg^2+, 9.7 μg fatty acid binding protein, and 1 μm 11-dansyl-undecanoic acid at 37° C. Assays were calibrated by adding a known amount of oleic acid to the complete assay in the absence of enzyme.

[3] = pH-dependence of the hydrolysis of phosphatidylglycerol vesicles; assay type: biochemical
Protocol: as §1, §2

[4] = Substrate specificity, fatty acid binding protein assay on phospholipid vesicles; assay type: biochemical; conditions: 30 μM vesicles, 1 mM Ca2+, 37° C.
Protocol: as §1, §2

B1: hGX: human group X secreted phospholipase A2 (protein)
chain: MLLLLLPSLLLLLLLPGPGSGEASRILRVHRRGILELAGTVGCVGPRTPIAYMKYGCFCGLGGHGQPRDAIDWCCHGHDCCYTRAEEAGCSPKTERYSWQCVNQSVLCGPAENKCQELLCKCDQEIANCLAQTEYNLKYLFYPQFLCEPDSPKCD
preference for POPG versus POPC vesicles [1]: 10 fold

B2: hGIIA sPLA2: human group IIA secreted phospholipase A2 (protein)
chain: MKTLLLLAVIMIFGLLQAHGNLVNFHRMIKLTTGKEAALSYGFYGCHCGVGGRGSPKDATDRCCVTHDCCYKRLEKRGCGTKFLSYKFSNSGSRITCAKQDSCRSQLCECDKAAATCFARNKTTYNKKYQYYSNKHCRGSTPRC
preference for POPG versus POPC vesicles [1]: greater than 10^5 fold

B3: hGV: human group V secreted phospholipase A2 (protein)
chain: MKGLLPLAWFLACSVPAVQGGLLDLKSMIEKVTGKNALTNYGFYGCYCGWGGRGTPKDGTDWCCWAHDHCYGRLEEKGCNIRTQSYKYRFAWGVVTCEPGPFCHVNLCACDRKLVYCLKRNLRSYNPQYQYFPNILCS
preference for POPG versus POPC vesicles [1]: 3 fold

B4: hGIIF sPLA2: novel human secreted group IIF phospholipase A2, recombinantly expressed in E. coli; 168 amino acid sequence, mature protein 148 residues (protein)
chain: MKKFFTVAILAGSVLSTAHGSLLNLKAMVEAVTGRSAILSFVGYGCYCGLGGRGQPKDEVDWCCHAHDCCYQELFDQGCHPYVDHYDHTIENNTEIVCSDLNKTECDKQTCMCDKNMVLCLMNQTYREEYRGFLNVYCQGPTPNCSIYEPPPEEVTCSHQSPAPPAPP
apparent KCa2+ ([2]; PC vesicles as substrate, hyperbolic dependence on Ca2+ concentration): 140 ± 40 µM
Ca2+ dependence of hydrolysis of phospholipid vesicles ([2]; phospholipid vesicles): strictly Ca^2+ dependent
rate of hydrolysis of phosphatidylglycerol vesicles versus pH [3]: increases with pH in the range 5-7
rate of POPC hydrolysis relative to rate of POPG [4]: ~6%
relative rates for the hydrolysis of POPG, POPS, and POPC vesicles [4]: highest with anionic POPG vesicles
